Results on one substance are retold here after publication PMC9520032.

This assay addresses Vibrio cholerae cytolysin E289A mutant, mature form (Vibrio cholerae). Put plainly: cryo-EM structure.

For “Vibrio cholerae cytolysin E289A mutant, mature form (natural protein)”, the stoichiometry N (in general, a count of units in the complex or per binding partner) turned out to be 7.
